{"source": "paper PMC2887722", "about": "(Molecular cell, 2010)", "binders": {"B1": {"name": "full length human Rpn13 (hRpn13) (natural protein, UniProt Q16186 1-407, looked up)", "chain": "MTTSGALFPSLVPGSRGASNKYLVEFRAGKMSLKGTTVTPDKRKGLVYIQQTDDSLIHFCWKDRTSGNVEDDLIIFPDDCEFKRVPQCPSGRVYVLKFKAGSKRLFFWMQEPKTDQDEEHCRKVNEYLNNPPMPGALGASGSSGHELSALGGEGGLQSLLGNMSHSQLMQLIGPAGLGGLGGLGALTGPGLASLLGSSGPPGSSSSSSSRSQSAAVTPSSTTSSTRATPAPSAPAAASATSPSPAPSSGNGASTAASPTQPIQLSDLQSILATMNVPAGPAGGQQVDLASVLTPEIMAPILANADVQERLLPYLPSGESLPQTADEIQNTLTSPQFQQALGMFSAALASGQLGPLMCQFGLPAEAVEAANKGDVEAFAKAMQNNAKPEQKEGDTKDKKDEEEDMSLD"}}, "key": {"His-tagged Uch37 [1]": {"target": "T1, His-tagged Uch37 (UniProt Q9Y5K5 1-329)", "T1 sequence (looked up)": "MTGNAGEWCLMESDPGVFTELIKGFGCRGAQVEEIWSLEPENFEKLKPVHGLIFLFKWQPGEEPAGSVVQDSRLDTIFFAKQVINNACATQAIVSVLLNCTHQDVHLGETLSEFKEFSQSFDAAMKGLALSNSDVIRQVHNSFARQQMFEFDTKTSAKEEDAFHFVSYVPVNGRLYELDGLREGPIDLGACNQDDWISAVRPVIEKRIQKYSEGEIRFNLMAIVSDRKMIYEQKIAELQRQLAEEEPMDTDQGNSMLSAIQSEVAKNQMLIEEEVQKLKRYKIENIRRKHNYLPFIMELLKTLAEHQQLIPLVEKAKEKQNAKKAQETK", "experiment": "NMR intermolecular NOEs"}, "hRpn2 (797-953)": {"target": "T2, hRpn2 (797-953) (human, UniProt Q99460 797-953)", "T2 sequence (looked up)": "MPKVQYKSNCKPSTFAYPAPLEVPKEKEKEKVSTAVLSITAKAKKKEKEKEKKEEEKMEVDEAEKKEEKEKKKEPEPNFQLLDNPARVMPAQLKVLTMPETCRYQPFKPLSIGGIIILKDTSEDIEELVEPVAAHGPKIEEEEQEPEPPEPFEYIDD", "experiment": "NMR titration"}, "[2]": {"target": "B1", "experiment": "pull-down"}, "His-tagged Uch37 [3]": {"target": "T1, His-tagged Uch37", "experiment": "pull-down"}, "ubiquitin": {"target": "ubiquitin (UniProt P0CG48 1-76)", "experiment": "other fluorescence titration"}}, "data": [{"binder": "hRpn13 (253-407) (domain or fragment, human, UniProt Q16186 253-407, looked up) STAASPTQPIQLSDLQSILATMNVPAGPAGGQQVDLASVLTPEIMAPILANADVQERLLPYLPSGESLPQTADEIQNTLTSPQFQQALGMFSAALASGQLGPLMCQFGLPAEAVEAANKGDVEAFAKAMQNNAKPEQKEGDTKDKKDEEEDMSLD", "values": [{"measurement": "binding result", "setting": "His-tagged Uch37 [1]", "value": "binds"}]}, {"binder": "hRpn13 (1-150) (domain or fragment, human, UniProt Q16186 1-150, looked up) MTTSGALFPSLVPGSRGASNKYLVEFRAGKMSLKGTTVTPDKRKGLVYIQQTDDSLIHFCWKDRTSGNVEDDLIIFPDDCEFKRVPQCPSGRVYVLKFKAGSKRLFFWMQEPKTDQDEEHCRKVNEYLNNPPMPGALGASGSSGHELSAL", "values": [{"measurement": "binding result", "setting": "hRpn2 (797-953)", "value": "binds"}]}, {"binder": "GST-tagged hRpn2 (797-953) (domain or fragment, human, UniProt Q99460 797-953, looked up) MPKVQYKSNCKPSTFAYPAPLEVPKEKEKEKVSTAVLSITAKAKKKEKEKEKKEEEKMEVDEAEKKEEKEKKKEPEPNFQLLDNPARVMPAQLKVLTMPETCRYQPFKPLSIGGIIILKDTSEDIEELVEPVAAHGPKIEEEEQEPEPPEPFEYIDD", "values": [{"measurement": "binding result", "setting": "[2]", "value": "binds"}]}, {"binder": "GST-tagged hRpn13 (253-407) wild-type (domain or fragment, human, UniProt Q16186 253-407, looked up) STAASPTQPIQLSDLQSILATMNVPAGPAGGQQVDLASVLTPEIMAPILANADVQERLLPYLPSGESLPQTADEIQNTLTSPQFQQALGMFSAALASGQLGPLMCQFGLPAEAVEAANKGDVEAFAKAMQNNAKPEQKEGDTKDKKDEEEDMSLD", "values": [{"measurement": "binding result", "setting": "His-tagged Uch37 [3]", "value": "binds"}]}, {"binder": "GST-tagged hRpn13 (253-407) with alanine substitutions of Val286, Asp287, Glu295 and Ile296 (domain or fragment, human, UniProt Q16186 253-407, looked up) STAASPTQPIQLSDLQSILATMNVPAGPAGGQQAALASVLTPAAMAPILANADVQERLLPYLPSGESLPQTADEIQNTLTSPQFQQALGMFSAALASGQLGPLMCQFGLPAEAVEAANKGDVEAFAKAMQNNAKPEQKEGDTKDKKDEEEDMSLD", "values": [{"measurement": "binding result", "setting": "His-tagged Uch37 [3]", "value": "binds"}]}, {"binder": "B1", "values": [{"measurement": "Kd", "setting": "ubiquitin", "value": "8 ± 0.5", "unit": "µM"}]}]}
